Reference: article PMC12416549 (2024)
Substitutions are numbered along the chain they refer to. Numbers in names are those of the source.

T1: TNFR1 (Homo sapiens, UniProt P19438)
T1 chain: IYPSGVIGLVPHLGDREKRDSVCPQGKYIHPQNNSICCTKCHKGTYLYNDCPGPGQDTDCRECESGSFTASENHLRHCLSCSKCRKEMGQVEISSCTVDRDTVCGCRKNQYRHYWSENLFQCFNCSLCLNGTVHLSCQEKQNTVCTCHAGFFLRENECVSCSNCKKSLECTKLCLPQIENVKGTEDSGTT

B1: S59I (designed binder)
chain: SMEEEVEKAAKEYEKKKKEAIEKHLEKLKAKDKEAAERFLKELEEAAKEYAKDEAKTMIEEEAKRRAKKYKEKVLLSELSEEEQKEIKEAEEKLVRTILKYVEEAAK
B2: V74L (designed binder)
chain: B1 chain with I59S, V74L
B3: L99F (designed binder)
chain: B1 chain with I59S, L99F
B4: S1W (designed binder)
chain: B1 chain with S1W, I59S
B5: K16G (designed binder)
chain: B1 chain with K16G, I59S
B6: A20P (designed binder)
chain: B1 chain with A20P, I59S
B7: R65A (designed binder)
chain: B1 chain with I59S, R65A
B8: Y13C (designed binder)
chain: B1 chain with Y13C, I59S
B9: E26L (designed binder)
chain: B1 chain with E26L, I59S
B10: A35G (designed binder)
chain: B1 chain with A35G, I59S
B11: E37C (designed binder)
chain: B1 chain with E37C, I59S
B12: V6G (designed binder)
chain: B1 chain with V6G, I59S
B13: E42H (designed binder)
chain: B1 chain with E42H, I59S
B14: V95W (designed binder)
chain: B1 chain with I59S, V95W
B15: E92L (designed binder)
chain: B1 chain with I59S, E92L
B16: L79V (designed binder)
chain: B1 chain with I59S, L79V
B17: E7A (designed binder)
chain: B1 chain with E7A, I59S
B18: F39C (designed binder)
chain: B1 chain with F39C, I59S
B19: V6Q (designed binder)
chain: B1 chain with V6Q, I59S
B20: K29F (designed binder)
chain: B1 chain with K29F, I59S
B21: K16E (designed binder)
chain: B1 chain with K16E, I59S
B22: A30Y (designed binder)
chain: B1 chain with A30Y, I59S
B23: K56A (designed binder)
chain: B1 chain with K56A, I59S
B24: E61T (designed binder)
chain: B1 chain with I59S, E61T
B25: S77I (designed binder)
chain: B1 chain with I59S, S77I
B26: A51M (designed binder)
chain: B1 chain with A51M, I59S
B27: L28C (designed binder)
chain: B1 chain with L28C, I59S
B28: I21Y (designed binder)
chain: B1 chain with I21Y, I59S
B29: K85F (designed binder)
chain: B1 chain with I59S, K85F
B30: A106I (designed binder)
chain: B1 chain with I59S, A106I
B31: S77E (designed binder)
chain: B1 chain with I59S, S77E
B32: K48F (designed binder)
chain: B1 chain with K48F, I59S
B33: E37S (designed binder)
chain: B1 chain with E37S, I59S
B34: K15E (designed binder)
chain: B1 chain with K15E, I59S
B35: K64L (designed binder)
chain: B1 chain with I59S, K64L
B36: V95C (designed binder)
chain: B1 chain with I59S, V95C
B37: K52V (designed binder)
chain: B1 chain with K52V, I59S
B38: Y101L (designed binder)
chain: B1 chain with I59S, Y101L
B39: L40N (designed binder)
chain: B1 chain with L40N, I59S
B40: E104R (designed binder)
chain: B1 chain with I59S, E104R
B41: L25W (designed binder)
chain: B1 chain with L25W, I59S
B42: V74H (designed binder)
chain: B1 chain with I59S, V74H
B43: E83A (designed binder)
chain: B1 chain with I59S, E83A
B44: A36K (designed binder)
chain: B1 chain with A36K, I59S
B45: Y50V (designed binder)
chain: B1 chain with Y50V, I59S
B46: V102L (designed binder)
chain: B1 chain with I59S, V102L
B47: K33L (designed binder)
chain: B1 chain with K33L, I59S
B48: A63Q (designed binder)
chain: B1 chain with I59S, A63Q
B49: L25H (designed binder)
chain: B1 chain with L25H, I59S
B50: L94M (designed binder)
chain: B1 chain with I59S, L94M
B51: A9C (designed binder)
chain: B1 chain with A9C, I59S
B52: L25D (designed binder)
chain: B1 chain with L25D, I59S
B53: M58K (designed binder)
chain: B1 chain with M58K, I59S
B54: L75K (designed binder)
chain: B1 chain with I59S, L75K
B55: E42C (designed binder)
chain: B1 chain with E42C, I59S
B56: A10I (designed binder)
chain: B1 chain with A10I, I59S
B57: K16C (designed binder)
chain: B1 chain with K16C, I59S
B58: E103I (designed binder)
chain: B1 chain with I59S, E103I
B59: E83S (designed binder)
chain: B1 chain with I59S, E83S

Biological target: T1, TNFR1
Assay: yeast display SC50

| apparent Kd (screen) | Binder |
| --- | --- |
| 2.73 nM | B1 |
| 0.49 nM | B2 |
| 9.41 nM | B3 |
| 3.63 nM | B4 |
| 0.49 nM | B5 |
| 3.63 nM | B6 |
| 1.27 nM | B7 |
| 1.27 nM | B8 |
| 0.869 nM | B9 |
| 1.16 nM | B10 |
| 0.49 nM | B11 |
| 2.48 nM | B12 |
| 5.84 nM | B13 |
| 13.8 nM | B14 |
| 10.4 nM | B15 |
| 1.27 nM | B16 |
| 3.63 nM | B17 |
| 5.31 nM | B18 |
| 6.43 nM | B19 |
| 1.05 nM | B20 |

| apparent Kd (screen) | Binder |
| --- | --- |
| 1.54 nM | B21 |
| 0.446 nM | B22 |
| 3 nM | B23 |
| 0.956 nM | B24 |
| 11.4 nM | B25 |
| 0.49 nM | B26 |
| 0.49 nM | B27 |
| 0.446 nM | B28 |
| 0.539 nM | B29 |
| 5.84 nM | B30 |
| 0.869 nM | B31 |
| 0.593 nM | B32 |
| 0.49 nM | B33 |
| 0.869 nM | B34 |
| 0.446 nM | B35 |
| 11.4 nM | B36 |
| 0.956 nM | B37 |
| 0.405 nM | B38 |
| 0.539 nM | B39 |
| 0.446 nM | B40 |

| apparent Kd (screen) | Binder |
| --- | --- |
| 0.446 nM | B41 |
| 6.43 nM | B42 |
| 0.405 nM | B43 |
| 0.49 nM | B44 |
| 0.0802 nM | B45 |
| 3 nM | B46 |
| 0.653 nM | B47 |
| 1.4 nM | B48 |
| 0.49 nM | B49 |
| 1.86 nM | B50 |
| 0.446 nM | B51 |
| 2.73 nM | B52 |
| 16.7 nM | B53 |
| 1.69 nM | B54 |
| 22.2 nM | B55 |
| 0.446 nM | B56 |
| 1.05 nM | B57 |
| 0.539 nM | B58 |
| 0.869 nM | B59 |
